Test results: patent US20260125477A1 (BEIJING MABWORKS BIOTECH, published 2026)

T1: recombinant human B7-H3 (4Ig) protein, with His tag (human, UniProt Q5ZPR3 29-461, limits assumed)
T1 construct: Bought protein; also called human B7-H3 (4Ig)/B7-H3b protein
T1 sequence (looked up): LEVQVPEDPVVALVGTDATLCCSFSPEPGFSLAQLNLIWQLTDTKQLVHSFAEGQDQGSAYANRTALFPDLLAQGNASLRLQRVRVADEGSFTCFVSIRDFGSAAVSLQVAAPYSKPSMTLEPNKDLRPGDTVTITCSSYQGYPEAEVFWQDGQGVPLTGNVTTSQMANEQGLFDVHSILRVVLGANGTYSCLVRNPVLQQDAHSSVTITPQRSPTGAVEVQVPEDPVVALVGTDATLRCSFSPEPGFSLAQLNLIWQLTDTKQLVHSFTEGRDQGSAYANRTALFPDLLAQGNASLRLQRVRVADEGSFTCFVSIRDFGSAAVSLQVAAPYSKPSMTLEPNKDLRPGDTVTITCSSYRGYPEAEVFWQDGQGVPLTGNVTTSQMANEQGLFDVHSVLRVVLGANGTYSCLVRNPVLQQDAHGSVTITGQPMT

T2: human B7-H2/ICOSLG protein, with His tag (human, UniProt O75144 19-258, limits assumed)
T2 construct: Bought protein
T2 sequence (looked up): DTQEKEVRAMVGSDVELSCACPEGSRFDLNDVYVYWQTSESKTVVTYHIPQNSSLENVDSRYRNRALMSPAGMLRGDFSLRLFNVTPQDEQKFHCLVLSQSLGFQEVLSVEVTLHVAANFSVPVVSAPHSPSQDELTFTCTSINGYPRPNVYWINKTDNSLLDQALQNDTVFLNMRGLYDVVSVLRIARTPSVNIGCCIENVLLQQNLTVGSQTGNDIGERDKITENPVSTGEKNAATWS

T3: human B7-2/CD86 protein, with His tag (human, UniProt P42081 26-247, limits assumed)
T3 construct: Bought protein
T3 sequence (looked up): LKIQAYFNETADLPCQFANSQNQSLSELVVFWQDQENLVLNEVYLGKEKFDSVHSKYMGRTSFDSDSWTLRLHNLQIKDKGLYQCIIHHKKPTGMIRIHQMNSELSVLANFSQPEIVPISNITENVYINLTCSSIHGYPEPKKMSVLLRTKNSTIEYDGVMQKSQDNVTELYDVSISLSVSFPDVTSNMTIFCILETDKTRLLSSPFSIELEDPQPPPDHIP

T4: human B7-H6/NCR3LG1 protein, with His tag (human, UniProt Q68D85 25-262, limits assumed)
T4 construct: Bought protein
T4 sequence (looked up): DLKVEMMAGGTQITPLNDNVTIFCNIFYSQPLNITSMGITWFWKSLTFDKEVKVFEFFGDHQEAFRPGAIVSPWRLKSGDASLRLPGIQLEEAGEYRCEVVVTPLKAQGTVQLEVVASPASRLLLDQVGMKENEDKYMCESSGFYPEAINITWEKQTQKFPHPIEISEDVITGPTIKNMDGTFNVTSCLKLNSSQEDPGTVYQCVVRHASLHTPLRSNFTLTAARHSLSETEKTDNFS

T5: recombinant human B7-H3 (2Ig) protein, with His tag (human, UniProt Q5ZPR3-2 29-245, limits assumed)
T5 construct: Bought protein; also called human B7-H3/CD276 protein
T5 sequence (looked up): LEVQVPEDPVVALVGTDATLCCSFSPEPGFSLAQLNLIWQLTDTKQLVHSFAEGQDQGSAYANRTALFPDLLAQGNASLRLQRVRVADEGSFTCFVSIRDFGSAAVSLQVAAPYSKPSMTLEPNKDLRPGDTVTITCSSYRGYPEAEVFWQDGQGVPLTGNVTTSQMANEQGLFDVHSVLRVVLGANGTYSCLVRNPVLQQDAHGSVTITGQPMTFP


Tests used:
[1] = target: T1, recombinant human B7-H3 (4Ig) protein, …; test: SPR (Biacore T200), antibody captured on Protein A chip, response at 200 nM antigen
Experimental: (§1) The anti-human B7-H3 antibodies were tested for their binding capability to B7 family proteins by SPR using Biacore T200 biosensor (Biacore, US) provided with a pre-fixed Protein A sensor chip.
(§2) The dissociation was monitored for 600 sec. The data was analyzed using Biacore 8k evaluation software version 3.0, to obtain the binding responses, and the protein concentration-binding response curves were plotted, to determine the cross-reaction of the anti-human B7-H3 antibodies to the B7 family proteins.

[2] = target: T2, human B7-H2/ICOSLG protein, with His tag; test: as above
Experimental: as §1, §2

[3] = target: T3, human B7-2/CD86 protein, with His tag; test: as above
Experimental: as §1, §2

[4] = target: T4, human B7-H6/NCR3LG1 protein, with His …; test: as above
Experimental: as §1, §2

[5] = target: T1, recombinant human B7-H3 (4Ig) protein, …; test: SPR (Biacore T200), antibody captured on Protein A chip, His-tagged antigen injected
Experimental: (§3) The fully human anti-human B7-H3 antibodies were tested for their binding affinity to human B7-H3 (4Ig), human B7-H3 (2Ig), monkey B7-H3 (monkey B7-H3/CD276 protein, with His tag, Cat #: B73-C52Ha, ACROBiosystems) and mouse B7-H3 protein (mouse B7-H3/CD276 protein, with His tag, Cat #: B73-M52H4, ACROBiosystems) by surface plasmon resonance (SPR) using Biacore T200 biosensor (Biacore, US) provided with a pre-fixed Protein A sensor chip. Briefly, the anti-human B7-H3 antibodies (1 μg/mL) were injected to the Biacore T200 biosensor at 10 μL/min for 20 sec, to achieve the desired protein density (100±30 RU).
(§4) The data as generated was analyzed using Biacore Insight V2.0.1 5.12933 with the one-to-one Langmuir binding model. The association rate (kₒₙ) and dissociation rate (koff) were obtained at the same time. The affinity was calculated as the quotient of the two kinetic rate constants (KD=koff/kₒₙ).

[6] = target: T5, recombinant human B7-H3 (2Ig) protein, …; test: as above
Experimental: as §3, §4

[7] = target: T6, monkey B7-H3/CD276 protein, with His tag (monkey); test: as above
T6 construct: Bought protein
Experimental: as §3, §4

Binder	Response (RU) [1] [RU]	Response (RU) [2] [RU]	Response (RU) [3] [RU]	Response (RU) [4] [RU]	Kd [5] [nM]	koff [5] [s⁻¹]	kon [5] [M⁻¹ s⁻¹]	Kd [6] [nM]	koff [6] [s⁻¹]	kon [6] [M⁻¹ s⁻¹]	Kd [7] [nM]	koff [7] [s⁻¹]	kon [7] [M⁻¹ s⁻¹]
6B5 (antibody, human IgG1, kappa, V domains shown, also called 6B5-WT; Ab6B5) VH: QVQLVESGPGLVKPSQTLSLTCTVSDGSISSGGYYWSWIRQHPGKGLEWIGYIYYSGGTYYSPSLKSRVTISVDTSKNQFSLKLTSVTAADTAVYYCARRAGYSSSFDSWGQGILVTVSS VL: EIVLTQSPLSLPVTPGEPASISCRSSQSLLYSNGYTYLDWYLQKPGQSPQFLIYLGFNRASGVPDRFSGSGSGTDFTLKISRVEAEDVGVYYCMQGLQTPYTFGQGTKLEIKR	34.8	0.9	0.3	-0.2	1.26	0.00031	247000	51.5	0.00653	127000	1.14	0.000295	258000
10D7 (antibody, human IgG1, kappa, V domains shown, also called 10D7-WT; Ab10D7) VH: QVQLVQSGPGLVKPSETLSLTCTVSGGSISRSSYYWGWIRQPPGKGLEWIGNIFYAGSTYYNPSLKSRVTISVDTSKNQFSLKLSSVTAADTAVYYCARRITGTTGWFDPWGQGTLVTVSS VL: DIQLTQSPSSLSASVGDRVTITCRASQGIRNDLGWYQQKPGKAPKLLIYAASTLQSGVPSRFSGSGSGTDFTLTISSLQPEDFATYYCLQDYNYPRTFGQGTKVEIKR	41.9	-0.1	-0.2	-0.5	1.11	0.000291	263000	386	0.0588	152000	49.5	0.0167	337000
10F5 (antibody, human IgG1, kappa, V domains shown, also called Ab10F5) VH: QVQLVQSGAEVKKPGSSVKVSCKASGGTFSSQAISWVRQAPGQGLEWMGRIIPMLGIGDYAQSFQGRVTITADKSTSTAYLEVSSLGSEDTAVYYCAREGIAALGTNYYYGMDVWGQGTAVTVSS VL: EIVMTQSPSSVSASVGDRVTITCRASQGISRWLAWYQQKPGKAPKLLIYVASSLQSGVPSRFSGSGSGTDFTLTISSLQPEDFATYYCQQANSFPFTFGPGTKVDIRR	32.5	0.9	0.5	-0.4	1.01	0.00011	109000	10.4	0.000422	40500	–	–	–
Enoblituzumab (antibody, human IgG1, kappa, V domains shown, Humanized anti-B7-H3 antibody of MacroGenics with optimised Fc, used as the positive control; also called AbEno; enoblituzumab-IgG1-Mut) VH: EVQLVESGGGLVQPGGSLRLSCAASGFTFSSFGMHWVRQAPGKGLEWVAYISSDSSAIYYADTVKGRFTISRDNAKNSLYLQMNSLRDEDTAVYYCGRGRENIYYGSRLDYWGQGTTVTVSS VL: DIQLTQSPSFLSASVGDRVTITCKASQNVDTNVAWYQQKPGKAPKALIYSASYRYSGVPSRFSGSGSGTDFTLTISSLQPEDFATYYCQQYNNYPFTFGQGTKLEIKR	25.7	-2	-1.5	-2.2	1.11	0.000239	216000	275	0.0203	73700	0.966	0.000223	231000
